Results published in US20250003940A1, “BIOSENSOR, BIOSENSOR COMPONENTS, AND USE THEREOF” (VICTORIA LINK LIMITED, priority 2021, published 2025).

Experiment: Enzyme activity after freeze-drying with stabilisers
Format: physicochemical
Conditions: freeze-dried with different stabilisers, compared with non-freeze-dried standard
Procedure: FIG. 23A: RcArgZ activity levels after freeze-drying with different additives. RcArgZ was purified and exchanged into the freeze-drying buffers. The buffers contained 50 mM Tris-Cl pH 8.0, 1 mM MgCl2, and one of the stabilisers. The stabilisers were the following: 1 mM mannitol, 40 mg/mL mannitol, 1 mM sucrose, 10 mg/mL sucrose, 1 mM trehalose, 20 mg/mL trehalose, or 20 mg/mL sucrose and 40 mg/mL mannitol. The sample was then snap frozen using liquid nitrogen before putting in a benchtop freeze-dryer. The sample was left drying for 18-24 hours. The activity of the freeze-dried enzymes was tested and compared with the non-freeze-dried standard (in their corresponding storage buffer).
FIG. 23B: HpGS activity levels after freeze-drying with different additives. HpGS was purified and buffer exchanged to the freeze-drying buffers. The buffers contained 50 mM Tris-Cl pH 8.0, 1 mM MgCl2, and the stabilisers. The stabilisers were the following: 1 mM mannitol, 40 mg/mL mannitol, 1 mM sucrose, 10 mg/mL sucrose, 1 mM trehalose, 20 mg/mL trehalose, or 20 mg/mL sucrose and 40 mg/mL mannitol. The sample was then snap frozen using liquid nitrogen before putting in a benchtop freeze-dryer. The sample was left drying for 18-24 hours. The activity of the freeze-dried enzymes was tested and compared with the non-freeze-dried standard (in their corresponding storage buffer). […]

B1: BpsA: Streptomyces lavendulae blue pigment synthetase A, converts glutamine to indigoidine, SEQ ID NO: 1 (protein, UniProt Q1MWN4 1-1282, looked up)
Indigoidine synthase: MTLQETSVLEPTLQGTTTLPGLLAQRVAEHPEAIAVAYRDDKLTFRELASRSAALADYLEHLGVSADDCVGLFVEPSIDLMVGAWGILNAGAAYLPLSPEYPEDRLRYMIENSETKIILAQQRLVSRLRELAPKDVTIVTLRESEAFVRPEGTEAPAARSARPDTLAYVIYTSGSTGKPKGVMIEHRSIVNQLGWLRETYAIDRSKVILQKTPMSFDAAQWEILSPANGATVVMGAPGVYADPEGLIETIVKHNVTTLQCVPTLLQGLIDTEKFPECVSLQQIFSGGEALSRLLAIQTTQEMPGRALINVYGPTETTINSSSFPVDPADLDEGPQSISIGSPVHGTTYHILDKETLKPVGVGEIGELYIGGIQLARGYLHRDDLTAERFLEIELEEGAEPVRLYKTGDLGQWNNDGTVQFAGRADNQVKLRGYRVELDEISLAIENHDWVRNAAVIVKNDGRTGFQNLIACIELSEKEAALMDQGNHGSHHASKKSKLQVKAQLSNPGLRDDAELAARPAFDLEGAEPTPEQRARVFARKTYRFYEGGAVTQADLLGLLGATVTAGYSRKAADLAPAELGQILRWFGQYISEERLLPKYGYASPGALYATQMYFELEGVGGLKPGYYYYQPVRHQLVLISEREATGKATAQIHFIGKKSGIEPVYKNNILEVLEIETGHMVGLFEQILPAYGLDIHDRAYEPAVKDLLDVADEDYYLGTFELVPHAGARDDQAEVYVQTHGGKVAGLPEGQYRYENGELTRFSDDIVLKKHVIAINQSVYQAASFGISVYSRAEEEWLKYITLGKKLQHLMMNGLNLGFMSSGYSSKTGNPLPASRRMDAVLGANGVDSAPMYFFVGGRISDEQIGHEGMREDSVHMRGPAELIRDDLVSFLPDYMIPNRVVVFDRLPLSANGKIDVKALAASDQVNAELVERPFVAPRTETEKEIAAVWEKALRRENASVQDDFFESGGNSLIAVGLVRELNARLGVSLPLQSVLESPTIEKLARRLEREVAQESSRFVRLHAETGKARPVICWPGLGGYPMNLRSLAGEIGLGRSFYGVQSYGINEGETPYETITEMAKKDIEALKEIQPAGPYTLWGYSFGARVAFETAYQLEQAGEKVDNLFLIAPGSPKVRAENGKVWGREASFANRGYTTILFSVFTGTISGPDLDRCLETVTDEASFAEFISELKGIDVDLARRIISVVGQTYEFEYSFHELAERTLQAPISIFKAVGDDYSFLENSSGYSAEPPTVIDLDADHYSLLREDIGELVKHIRYLLGE
In the case of B1, the activity when freeze-dried is reported as “able to retain activity”.
